doi:10.1101/2022.10.27.514150 (bioRxiv, 2022)
One block for each binder: values may come before it.

Key:
Gluc1-E2F4 = Gluc1-E2F4 (human, UniProt Q16254 1-413); test: split reporter
Gluc1-ΔNp73α FL = target: T1, Gluc1-ΔNp73α FL (UniProt O15350-8 1-587); test: split reporter
T1 sequence (looked up): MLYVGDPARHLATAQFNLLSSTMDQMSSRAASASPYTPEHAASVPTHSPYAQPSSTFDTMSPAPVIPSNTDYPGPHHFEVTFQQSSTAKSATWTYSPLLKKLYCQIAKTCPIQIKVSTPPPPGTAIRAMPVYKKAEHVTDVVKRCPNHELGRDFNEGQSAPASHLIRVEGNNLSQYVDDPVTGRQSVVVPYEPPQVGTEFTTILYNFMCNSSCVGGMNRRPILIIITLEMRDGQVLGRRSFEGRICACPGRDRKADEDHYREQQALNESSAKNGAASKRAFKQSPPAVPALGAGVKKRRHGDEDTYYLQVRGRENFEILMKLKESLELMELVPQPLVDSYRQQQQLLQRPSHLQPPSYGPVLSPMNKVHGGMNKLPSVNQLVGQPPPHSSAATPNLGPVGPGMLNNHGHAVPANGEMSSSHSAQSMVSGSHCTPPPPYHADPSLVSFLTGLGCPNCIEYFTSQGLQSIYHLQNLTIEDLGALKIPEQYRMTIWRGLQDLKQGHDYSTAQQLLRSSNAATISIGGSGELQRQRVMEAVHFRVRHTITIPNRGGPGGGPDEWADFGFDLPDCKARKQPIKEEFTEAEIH

Gluc1-TAp73α = target: T2, Gluc1-TAp73α (UniProt O15350 1-636); test: split reporter
T2 sequence (looked up): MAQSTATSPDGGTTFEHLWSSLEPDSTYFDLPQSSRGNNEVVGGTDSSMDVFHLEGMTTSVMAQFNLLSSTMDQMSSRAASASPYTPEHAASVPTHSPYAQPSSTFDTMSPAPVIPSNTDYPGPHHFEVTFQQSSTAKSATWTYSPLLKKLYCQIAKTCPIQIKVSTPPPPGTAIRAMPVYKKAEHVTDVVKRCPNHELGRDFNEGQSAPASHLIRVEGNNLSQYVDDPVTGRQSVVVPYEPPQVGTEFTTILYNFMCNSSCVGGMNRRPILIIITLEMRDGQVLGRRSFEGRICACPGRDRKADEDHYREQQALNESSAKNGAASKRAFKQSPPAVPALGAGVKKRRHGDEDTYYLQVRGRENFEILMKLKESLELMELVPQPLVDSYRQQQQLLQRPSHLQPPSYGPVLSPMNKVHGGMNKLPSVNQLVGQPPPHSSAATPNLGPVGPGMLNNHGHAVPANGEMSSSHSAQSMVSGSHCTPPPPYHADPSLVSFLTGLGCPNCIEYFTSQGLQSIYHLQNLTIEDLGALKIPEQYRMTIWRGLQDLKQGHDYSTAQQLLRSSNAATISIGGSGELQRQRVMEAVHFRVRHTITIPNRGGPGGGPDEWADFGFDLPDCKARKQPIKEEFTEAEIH

Gluc1-ΔN(74–348) = target: T3, Gluc1-ΔN(74–348) (UniProt O15350-8 74-348); test: split reporter
T3 sequence (looked up): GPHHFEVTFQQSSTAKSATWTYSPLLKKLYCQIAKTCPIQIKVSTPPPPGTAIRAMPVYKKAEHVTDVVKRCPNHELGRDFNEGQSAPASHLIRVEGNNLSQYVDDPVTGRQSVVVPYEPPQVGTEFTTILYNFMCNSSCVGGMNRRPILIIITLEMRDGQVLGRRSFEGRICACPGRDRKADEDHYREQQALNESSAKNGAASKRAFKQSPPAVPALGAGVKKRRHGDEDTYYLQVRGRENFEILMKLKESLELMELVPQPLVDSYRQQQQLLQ

[1] = target: T4, minimal E2F4/DP1 heterodimer (E2F4s/DP1s) (human, UniProt Q16254 84-413; Q14186 199-350); test: pull-down
T4 sequence (looked up) 1: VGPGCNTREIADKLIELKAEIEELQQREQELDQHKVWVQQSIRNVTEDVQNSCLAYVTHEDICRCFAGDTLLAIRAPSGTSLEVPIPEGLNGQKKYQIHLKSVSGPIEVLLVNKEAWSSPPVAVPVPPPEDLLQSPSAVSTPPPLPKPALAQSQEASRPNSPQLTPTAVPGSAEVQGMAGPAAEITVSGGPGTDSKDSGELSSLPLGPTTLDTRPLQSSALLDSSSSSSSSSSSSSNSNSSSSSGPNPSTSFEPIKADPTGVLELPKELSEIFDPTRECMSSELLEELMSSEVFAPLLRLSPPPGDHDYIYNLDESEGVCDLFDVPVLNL
T4 sequence (looked up) 2: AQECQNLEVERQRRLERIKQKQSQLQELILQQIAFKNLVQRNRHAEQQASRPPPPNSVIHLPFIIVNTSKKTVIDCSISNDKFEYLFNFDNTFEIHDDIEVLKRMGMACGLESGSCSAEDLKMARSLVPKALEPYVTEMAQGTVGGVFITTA

B1: Gluc2-DP1 (natural protein, human, UniProt Q14186 1-410, looked up)
chain: MAKDAGLIEANGELKVFIDQNLSPGKGVVSLVAVHPSTVNPLGKQLLPKTFGQSNVNIAQQVVIGTPQRPAASNTLVVGSPHTPSTHFASQNQPSDSSPWSAGKRNRKGEKNGKGLRHFSMKVCEKVQRKGTTSYNEVADELVAEFSAADNHILPNESAYDQKNIRRRVYDALNVLMAMNIISKEKKEIKWIGLPTNSAQECQNLEVERQRRLERIKQKQSQLQELILQQIAFKNLVQRNRHAEQQASRPPPPNSVIHLPFIIVNTSKKTVIDCSISNDKFEYLFNFDNTFEIHDDIEVLKRMGMACGLESGSCSAEDLKMARSLVPKALEPYVTEMAQGTVGGVFITTAGSTSNGTRFSASDLTNGADGMLATSSNGSQYSGSRVETPVSYVGEDDEEDDDFNENDEDD
normalized luminescence ratio (NLR) (Gluc1-E2F4): ~500

B3: Gluc2-E2F4 FL (natural protein)
chain: not shown
binding response relative to ΔNp73α (Gluc1-TAp73α): ~50%
normalized luminescence ratio (NLR) (Gluc1-ΔNp73α FL): > 20
binding relative to ΔNp73α FL/E2F4 FL (Gluc1-ΔN(74–348)): 60%

Next, values leading:

binding relative to ΔNp73α FL/E2F4 FL (Gluc1-ΔNp73α FL): 20%
B2: Gluc2-E2F(1–90) (domain or fragment)
chain: not shown

binding result [1]: binds
B4: MBP-ΔN(1-348) (domain or fragment, UniProt O15350-8 1-348, looked up)
chain: MLYVGDPARHLATAQFNLLSSTMDQMSSRAASASPYTPEHAASVPTHSPYAQPSSTFDTMSPAPVIPSNTDYPGPHHFEVTFQQSSTAKSATWTYSPLLKKLYCQIAKTCPIQIKVSTPPPPGTAIRAMPVYKKAEHVTDVVKRCPNHELGRDFNEGQSAPASHLIRVEGNNLSQYVDDPVTGRQSVVVPYEPPQVGTEFTTILYNFMCNSSCVGGMNRRPILIIITLEMRDGQVLGRRSFEGRICACPGRDRKADEDHYREQQALNESSAKNGAASKRAFKQSPPAVPALGAGVKKRRHGDEDTYYLQVRGRENFEILMKLKESLELMELVPQPLVDSYRQQQQLLQ

binding relative to ΔNp73α FL/E2F4 FL (Gluc1-ΔNp73α FL): 60%
B5: Gluc2-E2F(1–336) (domain or fragment)
chain: not shown
